According to patent publication US20160061835A1 (BAYLOR COLLEGE OF MEDICINE, published 2016):

Biological target: T1, Norwalk virus (NV) virus-like particle (Norwalk virus (genotype GI.1), UniProt Q83884 1-530; Q83885 1-212)
T1 construct: also called NV-VLP; NV-VLPs
T1 sequence 1: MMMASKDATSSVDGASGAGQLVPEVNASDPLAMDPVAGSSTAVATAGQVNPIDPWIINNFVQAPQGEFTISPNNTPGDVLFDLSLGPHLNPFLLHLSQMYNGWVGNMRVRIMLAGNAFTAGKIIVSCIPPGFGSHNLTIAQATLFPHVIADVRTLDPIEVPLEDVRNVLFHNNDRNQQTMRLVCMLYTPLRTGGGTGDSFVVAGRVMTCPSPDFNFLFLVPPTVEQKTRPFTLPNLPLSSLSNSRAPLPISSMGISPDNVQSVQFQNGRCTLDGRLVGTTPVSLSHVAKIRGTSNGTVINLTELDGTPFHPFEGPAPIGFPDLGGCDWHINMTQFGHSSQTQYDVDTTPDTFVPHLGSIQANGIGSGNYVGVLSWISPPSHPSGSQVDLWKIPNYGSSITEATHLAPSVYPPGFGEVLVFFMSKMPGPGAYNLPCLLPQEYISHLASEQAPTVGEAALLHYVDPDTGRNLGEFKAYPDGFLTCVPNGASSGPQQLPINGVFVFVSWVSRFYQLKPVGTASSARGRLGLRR
T1 sequence 2: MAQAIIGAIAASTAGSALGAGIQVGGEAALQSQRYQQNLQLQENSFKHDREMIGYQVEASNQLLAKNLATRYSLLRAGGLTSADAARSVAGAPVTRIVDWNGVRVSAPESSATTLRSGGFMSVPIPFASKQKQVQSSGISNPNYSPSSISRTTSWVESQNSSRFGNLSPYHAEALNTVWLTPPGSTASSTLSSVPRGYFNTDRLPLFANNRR
Test: capture ELISA: NV-VLP captured by immobilized polyclonal antibody, M13 phage antibody detection

B1: non-peptide displaying M13 phage (other)
chain: AETVESCLAKPHTENSFTNVWKDDKTLDRYANYEGCLWNATGVVVCTGDETQCYGTWVPIGLAIPENEGGGSEGGGSEGGGSEGGGTKPPEYGDTPIPGYTYINPLDGTYPPGTEQNPANPNPSLEESQPLNTFMFQNNRFRNRQGALTVYTGTVTQGTDPVKTYYQYTPVSSKAMYDAYWNGKFRDCAFHSGFNEDPFVCEYQGQSSDLPQPPVNAGGGSGGGSGGGSEGGGSEGGGSEGGGSEGGGSGGGSGSGDFDYEKMANANKGAMTENADENALQSDAKGKLDSVATDYGAAIDGFIGDVSGLANGNGATGDFAGSNSQMAQVGDGDNSPLMNNFRQYLPSLPQSVECRPFVFSAGKPYEFSIDCDKINLFRGVFAFLLYVATFMYVFSTFANILRNKES
notes: Whole phage particle used as negative control; also called M13 control phage
- binding result: no binding
